Experimental data: US8969027B2, “Protease assay” (priority 2008, dated 2015)
Values belong to the compound of their own block, whether it stands above or below them. No end group written: not given here.

Legend:
urokinase [1] = molecular target: T1, urokinase (Homo sapiens, UniProt P00749); experiment: Fluorescence/phosphorescence assay of uPA activity with chromophore-chromophore assembly; assay type: biochemical; conditions: excitation of pyrene at 280 nm, 37° C., about 1×10^−8 mol urokinase, 0-15 minutes
T1 construct: purchased Innovative Research, Inc., Novi, Mich
Protocol: In this example, fluorescence/phosphorescence assays were used to measure activity of uPA. A chromophore-chromophore assembly was prepared using the peptide sequence SRSRSRSRSRSGRSAGGGC (SEQ ID NO: 18) (GenScript) as a spacer between a pyrene fluorophore and a coumarin acceptor. All chemicals and solvents were purchased from Fisher/Acros (Pittsburgh, Pa.), unless otherwise noted. The assembly was prepared by dissolving 0.00010 mol of coumarin in THF at room temperature. Next, 0.00012 mol of 1-ethyl-3-(3-dimethyllaminopropyl)carbodiimide (EDC) were added as solid under argon-atmosphere and allowed to react for 5 hours. Then, the oligopeptide linkage was attached to the coumarin by adding to the reaction 0.00010 mol of the oligopeptide dissolved in 1 ml bidest. (double purified) water, followed by stirring at room temperature for 24 hours under argon atmosphere. Next, 0.0020 mol of mercaptopyrene was added as a solid to the solution, and completely dissolved within 5 minutes. The solution was continuously stirred under ambient conditions for another 24 hours. […]
The spectral shift from the assay is depicted in FIG. 3. The changes in the emission spectra were measured using a spectrofluorometer (ISA-SPEX, Fluoromax-2; ISA, Inc., Edison, N.J.). Upon photoexcitation of the pyrene at 280 nm, FRET occurs, which causes the attached coumarin to emit most of the phosphorescence/luminescence. […]

[2] = Fluorescence quantum yield of TCPP; assay type: physicochemical; conditions: untethered, non-metalated TCPP
Protocol: The emission spectra of the nanoplatform assembly (1×10^−5 M) in PBS in the presence of about 1×10^−8 M urokinase is depicted in FIG. 4, at 0 (A), 2 (B), 4 (C), and 6 minutes (D). […] The reason for the observed non-linear behavior can be found in the high fluorescence quantum yield of the untethered, non-metalated TCPP. We estimated Φ=0.082, which is approximately eight times higher than in the tethered state, when the large porphyrin-concentration in the sphere around the Fe/Fe3O4-nanoparticle leads to increase FRET and, consequently, radiation-less deactivation of the excited states.

urokinase [3] = molecular target: T1, urokinase; experiment: UV/Vis-absorption spectroscopy measurement of uPA activity with nanoparticle-nanoparticle assembly; assay type: biochemical; conditions: PBS, 37° C.
Protocol: In this procedure, UV/Vis-Absorption spectroscopy was used to measure the activity of uPA. All chemicals and solvents were purchased from Fisher/Acros (Pittsburgh, Pa.), unless otherwise noted. A nanoparticle-nanoparticle assembly was prepared using citrate-stabilized gold nanoparticles (Sigma-Aldrich, St. Louis, Mo.) with a 10 nm diameter and an oligopeptide with the following sequence: CGGGSGRSAGGGC (SEQ ID NO: 35) (GenScript, Piscataway, N.J.). First, 1 mg of the nanoparticles was suspended in 25 ml of tetrahydrofuran (THF) containing 1.0×10^−3 M of glycine. The microheterogeneous solution was heated under pressure (100 psi) and argon-atmosphere to 200° C. for 5 hours. The reaction was carried out using a High-Pressure Reactor (available from Parr Instruments, Moline, Ill.). Digestive ripening decreased the Au-nanoparticle diameter to 4-5 nm. The nanoparticles were then removed from the solution by ultracentrifugation at 30,000 rpm and then resuspended in THF. The procedure was repeated 10 times to remove all non-bonded glycine.
Next, 0.1 mg of the oligopeptide was added to the Au-nanoparticles in 1.0 ml of anhydrous THF, followed by stirring for 24 hours. The oligopeptide and nanoparticles were precipitated by centrifugation at 30,000 rpm and then resuspended in THF. This procedure was repeated 10 times. The linked Au—Au nanoparticle assemblies were then dissolved in phosphate buffer (PBS; pH=7.02), precipitated by centrifugation at 20,000 rpm and resuspended again in PBS.
The reported absorption coefficient at the maximum absorption of the plasmon is ε=7.66×10^9 M^−1 cm^−1. This absorption coefficient was used to estimate the concentration of the Au—Au nanoparticles at […].
The Au—Au nanoparticles in PBS solution were then added to a quartz cuvette (˜3.0 mL). The solution was heated to 37° C. for 15 minutes. Next, 1×10^−8 mol of urokinase in 0.050 ml of PBS (Innovative Research, Inc., Novi, Mich.) was added to the cuvette. […]

urokinase [4] = molecular target: T1, urokinase; experiment: FRET-based sensor emission spectra in the presence of urokinase; assay type: biochemical; conditions: assembly 1×10^−5 M in PBS, about 1×10^−8 M urokinase, 0-6 minutes
Protocol: For the FRET-Based Sensor, five Zn-TCPP porphyrins were attached to one central stealth-protected Fe/Fe3O4 nanoparticle, and then a non-metalated TCPP porphyrin was attached to the central nanoparticle, using the procedure described below.
To prepare the stealth-protected Fe/Fe3O4-nanoparticles, 35 mg of dopamine-tetraethylene glycol ligand were dissolved in 5 ml THF. Next, 11.0 mg of Fe/Fe3O4-nanoparticles were added and sonicated at room temperature for 1 hour. […] The solid was then collected with a magnet and solvent was decanted carefully. The solid was washed with THF (3×3 ml). After drying under vacuum for 2 hours, 10.0 mg of stealth-protected nanoparticle product was obtained.
The oligopeptide linker was then attached to the metalated porphyrin. […]
The emission spectra of the nanoplatform assembly (1×10^−5 M) in PBS in the presence of about 1×10^−8 M urokinase is depicted in FIG. 4, at 0 (A), 2 (B), 4 (C), and 6 minutes (D). […] The reason for the observed non-linear behavior can be found in the high fluorescence quantum yield of the untethered, non-metalated TCPP. […]
In FIG. 5, the ratios of the integrals of the fluorescence bands shown at λ1=607 nm, λ2=654 nm, and λ3=718 nm are plotted versus the mol percent of released TCPP (as measured by HPLC using an Agilent workstation (HP 1050) equipped with an optical detection system). […]

Compound: chromophore-chromophore assembly: pyrene fluorophore and coumarin acceptor linked by peptide SRSRSRSRSRSGRSAGGGC (SEQ ID NO: 18) (also: pyrene fluorophore and coumarin acceptor attached)
coumarin emission (FRET) after adding urokinase (urokinase [1]): decreases with time

Compound: O=C(O)c1ccc(-c2c3nc(c(-c4ccc(C(=O)O)cc4)c4ccc([nH]4)c(-c4ccc(C(=O)O)cc4)c4nc(c(-c5ccc(C(=O)O)cc5)c5ccc2[nH]5)C=C4)C=C3)cc1 [TCPP, tetracarboxy-phenyl-porphyrin]
fluorescence quantum yield Φ [2]: 0.082

maximum of the gold plasmon absorption after urokinase cleavage (urokinase [3]; 1×10^−8 mol urokinase): 517 nm
time for the shift of the plasmon absorption maximum (urokinase [3]; 1×10^−8 mol urokinase): ≤ 180 s
maximum of the gold plasmon absorption before urokinase cleavage (urokinase [3]; before adding urokinase): 523 nm
Compound: coupled pair of gold nanoparticles: 4-5 nm gold nanoparticles linked by oligopeptide CGGGSGRSAGGGC (SEQ ID NO: 35) (cysteine pairing not given here; also: attached to gold nanoparticles)

fluorescence band at λ1=607 nm in the presence of urokinase (urokinase [4]): distinct decrease
Compound: FRET-Based Sensor: five Zn-TCPP porphyrins and a non-metalated TCPP attached to one stealth-protected Fe/Fe3O4 nanoparticle via CGGGSGRSAGGGC linkers (cysteine pairing not given here; also: links Zn-TCPP porphyrins and TCPP to Fe/Fe3O4 nanoparticle, attachment points not given here)
